For one assay, the target named is T1, TRAF2 (Homo sapiens, UniProt Q12933).
T1 construct: TRAF2 TRAF domain (amino acid residues 305-501); 6xHis (C); made in house; host or cells: E. coli BL21 (DE3)
T1 sequence (Q12933 305-501): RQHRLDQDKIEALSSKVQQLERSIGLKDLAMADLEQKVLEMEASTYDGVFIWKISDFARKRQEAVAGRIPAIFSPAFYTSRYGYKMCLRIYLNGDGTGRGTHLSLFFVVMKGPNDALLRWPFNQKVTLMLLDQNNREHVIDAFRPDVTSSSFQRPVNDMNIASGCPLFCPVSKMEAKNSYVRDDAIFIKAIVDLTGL
The assay is described as follows: Surface plasmon resonance (SPR), TRAF2. The assay is classed as binding. Conditions: TRAF2 versus TRAF1. The procedure: (§1) The binding affinities between TRADD-N and TRAF1 or TRAF2 were further quantitatively analyzed using surface plasmon resonance (SPR) experiments (Figure 3a,b). For the SPR experiment, each purified 6xHis-tagged TRAF1 and TRAF2 was coupled to Ni-NTA sensor chips using a His-tag affinity system. Different concentrations of TRADD-N protein, from 0.39 to 3.125 μM, were analyzed for binding to TRAF1 or TRAF2. […] Given their interaction patterns and affinity differences in complex formation, we modeled the structure of the TRAF1:TRADD-N complex by docking TRADD-N to a previously solved TRAF1 structure based on the TRAF2:TRADD-N complex to better understand the affinity differences (Figure 3c,d). According to the previously determined structure of the TRAF2:TRADD-N complex, two distinct binding regions, Region I and II, were identified (Figure 3e). The specific residues from TRAF2 that contributed to the interaction in Region I were T401, H406, L471, and P474. The interaction-contributing residues on TRAF2 in Region II were D445, R448, P449, D450, S454 and G468. All residues in TRAF2 that participated in the interaction with TRADD-N were conserved in TRAF1, except for S454, which was replaced by alanine in TRAF1 (Figure 3f). The side chain of S454 in TRAF2 formed a stable hydrogen bond with the side chain of Q143 on TRADD-N and contributed to the stable interaction between these two proteins. […]

A further assay addresses TRAF2 S454A mutant. The assay can be described thus: Isothermal titration calorimetry (ITC), TRAF2 S454A mutant. In kind it is binding. The note with it: Supplementary Figure S1. The procedure: as §1, with “3f).” for “3f). The side chain of S454 in TRAF2 formed a stable hydrogen bond with the side chain of Q143 on TRADD-N and contributed to the stable interaction between these two proteins.”
A NanoITC (TA Instruments) was used for isothermal titration calorimetry experiments. […] Binding isotherms were analyzed by using the software provided by TA Instruments. […]

Broadly, the Kd is a measure of binding affinity in units of concentration. A higher Kd goes with lower affinity.

B1: TRADD-N: N-terminal domain of TRADD (TRADD-N, amino acid residues 1-163) (protein)
chain: MAAGQNGHEEWVGSAYLFVESSLDKVVLSDAYAHPQQKVAVYRALQAALAESGGSPDVLQMLKIHRSDPQLIVQLRFCGRQPCGRFLRAYREGALRAALQRSLAAALAQHSVPLQLELRAGAERLDALLADEERCLSCILAQQPDRLRDEELAELEDALRNLK
modifications: left off: His6 (from the vector pET24a), C-terminal, state not stated
For B1, in the assay with TRAF2, the “affinity of TRAF2 for TRADD-N relative to that of TRAF1” value is on record as “four times higher”. The molecule also showed a Kd on TRAF2 S454A mutant of about 55 nM.
